For one substance, immunoblot quantification of binding to active Rac1 (%) results are on record in publication PMC6926487.

The assay deals with GST-Rac1A, active (GTPγs-bound) (Dictyostelium) (UniProt P34144). In words: pull-down; GST-Rac on glutathione magnetic agarose beads, loaded with GTPγs; Dictyostelium lysate (50 mM Tris HCl pH 8, 100 mM NaCl, 30 mM MgCl2, 0.1% Triton X-100, 1 mM DTT) added for 1 hour at 4°C; immunoblot anti-GFP.

“GFP-WASP (Dictyostelium Wiskott-Aldrich syndrome protein, wild type) (natural protein)” displayed an immunoblot quantification of binding to active Rac1 (%) of 1.9%.
